Measured values reported in paper PMC9886975, “Ligand recognition mechanism of the human relaxin family peptide receptor 4 (RXFP4)” (Nature Communications, 2023).
Ends that are not written are not given here.

Columns and labels:
[1] = system: RXFP4; settings: R23^BA ref 34; R23^BE ref 35; cited from earlier work
Text: Despite these advances, difficulties in obtaining sufficient quantities of native INSL5 hampered our efforts in further exploring the biology of the peptide and its cognate receptor. […] In addition to peptidic analogs, small molecule modulators have been reported in recent years. […] The N-terminal residues (R5^B to L9^B) adopted a loop that is clasped by a short N-terminal α-helix of the A chain through one disulfide bond (C8^A‒C7^B). W24^B contributed massive polar and nonpolar interactions to stabilize the peptide binding via both side chain indole and the carboxylic acid group. The former made a hydrogen bond with T121^3.32 (superscripts denote Ballesteros–Weinstein numbering[32]), as well as cation- ...

[2] = target: human RXFP4 H299A mutant (human) (UniProt Q8TDU9)
[3] = target: T1, human RXFP4 stably expressed on CHO-K1 cells (hRXFP4-CHO) (human, UniProt Q8TDU9 1-374); assay: cell-based or functional assay
[4] = target: T1, human RXFP4 stably expressed on CHO-K1 …; assay: competitive binding of a europium-labelled ligand on cells (time-resolved fluorescence); CHO-K1 cells stably transfected with RXFP4 on poly-L-lysine 96-well plates; 5 nM Eu-R3/I5 with increasing amounts of ligand; one-site binding curve; settings: one partner purified

T1 sequence (Q8TDU9 whole entry): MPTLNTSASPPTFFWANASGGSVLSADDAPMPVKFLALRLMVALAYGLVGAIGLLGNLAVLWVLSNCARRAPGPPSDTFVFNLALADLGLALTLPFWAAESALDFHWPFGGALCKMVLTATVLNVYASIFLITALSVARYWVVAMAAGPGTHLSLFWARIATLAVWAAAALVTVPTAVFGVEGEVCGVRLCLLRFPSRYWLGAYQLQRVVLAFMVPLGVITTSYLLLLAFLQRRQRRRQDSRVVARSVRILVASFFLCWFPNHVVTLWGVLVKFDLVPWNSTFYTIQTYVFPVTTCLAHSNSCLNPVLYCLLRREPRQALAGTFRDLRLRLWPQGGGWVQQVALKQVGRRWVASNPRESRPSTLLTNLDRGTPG
Sequence of human RXFP4 H299A mutant (human) (Q8TDU9 whole entry H299A): as the sequence (Q8TDU9 whole entry) above, with H299A counted along it

Row | INSL5-induced cAMP response in HEK293T cells transfected with the mutant receptor: reduction of Emax against wild type [2] | inhibition of forskolin-induced cAMP responses in CHO-K1 cells stably transfected with RXFP4 (pEC50) [3] | pKi [4] | Molecule | potency of R23^B mutant vs INSL5 [1]
1 |  |  |  | R23^BA: INSL5 with R23^B replaced by alanine (Insulin-like peptide INSL5 B … KESVRLCGLEYIRTVIYICASSAW; Insulin-like peptide INSL5 A … QDLQTLCCTDGCSMTDLSALC; disulfide (positions not given here); ends not checked; also: three disulfide bonds, places not given here; UniProt Q9Y5Q6 23-46; Q9Y5Q6 115-135, looked up, variant R23A) | reduced potencies
2 | 70% | 8.8 | 8.19 | recombinant two-chain human insulin-like peptide 5 (INSL5) (ligand) chain 1: QDLQTLCCTDGCSMTDLSALC chain 2: KESVRLCGLEYIRTVIYICASSRW | 
